The results in this text go back to the DeepSol protein solubility set.

This series can be described thus: soluble on expression in E. coli; label from the status in PepcDB or PDB records.
As to “GSPGIPGSTRMAYQHCPFDTLLILDFETTSDAANQDYPCEVIQFAIVAYDVPNDKIREDISFNKYVKPVLNRTLTKNCVDFTGIPQRSIDTADTFDVVYEQFQQWLITLGLEEGKFAFVCDSRQDLWRIAQYQMKLSNIQMPAFFRQYINLYKIFTNEMDRMGPKELSATTNIGKMNEYYDLPTIGRAHDAMDDCLNIATILQRMINMGAKVTVNELLTCCASWRRQPLVYNKEWRSSFMDAGKIFERVLPLVVTTIRAGDFRLEMYGVCRYCRKGMDVCGTSHQQTPHDLYKNEEDPIHFAKIAGYY”, the “soluble on expression in E. coli” value is listed as “soluble”. To “GSQEQKGDAPTCGICHKTKFADGCGHNCSYCQTKFCARCGGRVSLRSNKVMWVCNLCRKQQE” belongs “soluble”; to “GSQRVLVEPDAGAGVAVMKFKNPPVNSLSLEFLTELVISLEKLENDKSFRGVILTSDRPGVFSAGLDLTEMCGRSPAHYAGYWKAVQELWLRLYQSNLVLVSAINGACPAGGCLVALTCDYRILADNPRYCIGLNETQLGIIAPFWLKDTLENTIGHRAAERALQLGLLFPPAEALQVGIVDQVVPEEQVQSTALSAIAQWMAIPDHARQLTKAMMRKATASRLVTQRDADVQNFVSFISKDSIQKSLQMYLERLKEEKG”, “soluble”. In the case of “GSRNHCPHLDSVGEITKEDLIQKSLGTCQDCKVQGPNLWACLENRCSYVGCGESQVDHSTIHSQETKHYLTVNLTTLRVWCYACSKEVFLDRKLGTQ”, the “soluble on expression in E. coli” value was “soluble”. The same measure for “GSRTVDLELELQIELLRETKRKYESVLQLGRALTAHLYSLLQTQHALGDAFADLSQKSPELQEEFGYNAETQKLLCKNGETLLGAVNFFVSSINTLVTKTMEDTLMTVKQYEAARLEYDAYRTDLEELSLGPRDAGTRGRLESAQATFQAHRDKYEKLRGDVAIKLKFLEENKIKVMHKQLLLFHNAVSAYFAGNQKQLEQTLQQFNIKLRPPGAEKPSWLEEQ”: “soluble”; for “GSSCPGKSSWPHLVGVGGSVAKAIIERQNPNVKAVILEEGTPVTKDFRCNRVRIWVNKRGLVVSPPRIG”: “soluble”.

Consider “GSSGSSGMCGRFAQSQTREDYLALLAEDIERDIPYDPEPIGRYNVAPGTKVLLLSERDEHLHLDPVFWGYAPGWWDKPPLINARVETAATSRMFKPLWQHGRAICFADGWFEWKKEGDKKQPFFIYRADGQPIFMAAIGSTPFERGDEAEGFLIVTAAADQGLVDIHDRRPLVLSPEAAREWMRQEISGKEASEIAASGCVPANQFSWHPVSRAVGNVKNQGAELIQPV”, for which the “soluble on expression in E. coli” value was “soluble”. The same measure for “GSSKSWANHENKTVNKITVVGGGELGIACTLAISAKGIADRLVLLDLSEGTKGATMDLEIFNLPNVEISKDLSASAHSKVVIFTVNSLGSSQSYLDVVQSNVDMFRALVPALGHYSQHSVLLVASQPVEIMTYVTWKLSTFPANRVIGIGCNLDSQRLQYIITNVLKAQTSGKEVWVIGEQGEDKVLTWSGQEEVVSHTSQVQLSNRAMELLRVKGQRSWSVGLSVADMVDSIVNNKKKVHSVSALAKGYYDINSEVFLSLPCILGTNGVSEVIKTTLKEDTVTEKLQSSASSIHSLQQQLKL”: “soluble”; for “GTVKVYLPNKQRTVVTVRDGMSVYDSLDKALKVRGLNQDCCVVYRLIKGRKTVTAWDTAIAPLDGEELIVEVL”: “soluble”; for “GVADASDPIRPLVEALNAEAPLKLWSVLVTCLGDVSRDGVIEVSGVALSSFVERMGLQPQAMRVALHRLKRDGWVESRRLGRVGFHRLSDSALTQTRAVAGRIYGPGAGPAPWHLAGMPPDAPDGLSLLPDTLSATPISRRFALICGPLEDVPEDWLLTAPSGRGLPVWVQDVVVEAGCEAEFKALERTLAQIDKVPDTRLERFTLRVLVLHAWRRLILRSSPAAEAALGGARAEISCRARVHQLLDQLGSVEPDWDLPATEDAAS”: “soluble”. Take “GVDRDYLQSEYGVLKAGQCYKVVRSFRDYRNINYERGDVMRFLGSNFVPYESGLSLFFDKNGSERQIMLCVRPEFQMEIAHHLDSYFCKLDDN”: the “soluble on expression in E. coli” value is recorded as “soluble”. To “GVFTYESEFTSEIPPPRLFKAFVLDADNLVPKIAPQAIKHSEILEGDGGPGTIKKITFGEGSQYGYVKHKIDSIDKENYSYSYTLIEGDALGDTLEKISYETKLVASPSGGSIIKSTSHYHTKGNVEIKEEHVKAGKEKASNLFKLIETYLKGHPDAYN” belongs “soluble”. With “GYQALEKYSRDLTALARAGKLDPVIGRDTEIRRAIQILSRRTKNNPILLGDPGVGKTAIVEGLAIKIVQGDVPDSLKGRKLVSLDLSSLIAGAKYRGDFEERLKSILKEVQDAEGQVVMFIDEIHTVVGAGAVAEGALDAGNILKPMLARGELRCIGATTVSEYRQFIEKDKALERRFQQILVEQPS”, the “soluble on expression in E. coli” value is reported as “soluble”.

“HFVIRSPEDGANLVMEDMRFLTQEHFVCLYLNTKNQVIHKRTVFIGSLNSSIVHPREVFKEAFKRSAASFICVHNHPSGDPTPSREDIEVTRRLFECGNLIGIELLDHLVIGDKKFVSLKEKGYL”: the “soluble on expression in E. coli” value is “not soluble”. “HGTELPSPPSVWFEAEFFHHILHWTPIPQQSESTCYEVALLRYGIESWNSISQCSQTLSYDLTAVTLDLYHSNGYRARVRAVDGSRHSQWTVTNTRFSVDEVTLTVGSVNLEIHNGFILGKIQLPRPKMAPAQDTYESIFSHFREYEIAIRKVPGQFTFTHKKVKHEQFSLLTSGEVGEFCVQVKPSVASRSNKGMWSKEECISLTRQYFTVTN”: the “soluble on expression in E. coli” value is recorded as “soluble”. With “HHHHHHSSGLVPRGSHMGGTGSGMTPGEAWKKQLNKLGKTQFEQYKRSCILEVDRTHARDSLENGIQNGIAVSRGSAKLRWMEERGYVKPTGIVVDLGCGRGGWSYYAASLKNVKKVMAFTLGVQGHEKPIMRTTLGWNLIRFKDKTDVFNMEVIPGDTLLCDIGESSPSIAVEEQRTLRVLNCAKQWLQEGNYTEFCIKVLCPYTPLIMEELSRLQLKHGGGLVRVPLSRNSTHEMYWVSGTRTDVVGTVSNVSRLLTRRMLNKPQPPTLEDDVILDMGTR”, the “soluble on expression in E. coli” value is listed as “soluble”. The same measure for “HIKVGFSPEKLQPYTQLPSDFNEFWNKTKAEAARFPLTYTKEYVEKYSTDKIDCYLIRLQLNKQSQCIYGYLFYPKAEGKYPVVLCPPGAGIKTIKGPMRHKYYAEEGCIRFEIEIHGLNPELDEDTFGEISRAFSSRENGYLVNGLDSRENYYMKRVYLACVRSIDLLTSLPEWDGKNVIVQGGSQGGALALITAGLDKRVTACVANHPALSDMAGYKAGRAGGYPHLFKNTVDMDTPAKMKTLAYYDVVNFAKQITVPVYMTWGFNDNTCPPTTSYIVYNVLNCPKEALITPVNEHWTSEDTEYGHLLWIKKHLK”: “not soluble”. The same measure for “HMAEIYLAGGCFWGLEEYFSRISGVLETSVGYANGQVETTNYQLLKETDHAETVQVIYDEKEVSLREILLYYFRVIDPLSINQQGNDRGRQYRTGIYYQDEADLPAIYTVVQEQERMLGRKIAVEVEQLRHYILAEDYHQDYLRKNPSGYCHIDVTDADKPLIDAANYEKPSQEVLKASLSEESYRVTQEAATEAPFTNAYDQTFEEGIYVDITTGEPLFFAKDKFASGCGWPSFSRPLSKELIHYYKDLSHGMERIEVRSRSGSAHLGHVFTDGPRELGGLRYCINSASLRFVAKDEMEKAGYGYLLPYLNK”: “soluble”; for “HMVTLYTSPSSTSCRKARAWLEEHEIPFVERNIFSEPLSIDEIKQILRMTEDGTDEIISTRSKVFQKLNVNVESMPLQDLYRLINEHPGLLRRPIIIDEKRLQVGYNEDEIRRFLPRKVRSFQLREAQRLAN”: “soluble”.

Regarding “HNGDLYFSNVMLQDMQTDYSCNARFHFTHTIQQKNPFTLKVLTTRGVAERTPSFMYPQGTASSQMVLRGMDLLLECIASGVPTPDIAWYKKGGDLPSDKAKFENFNKALRITNVSEEDSGEYFCLASNKMGSIRHTISVRVKAAPYWLDEPKNLILAPGEDGRLVCRANGNPKPTVQWMVNGEPLQSAPPNPNREVAGDTIIFRDTQISSRAVYQCNTSNEHGYLLANAFVSVLDVPPRMLSPRNQLIRVILYNRTRLDCPFFGSPIPTLRWFKNGQGSNLDGGNYHVYENGSLEIKMIRKEDQGIYTCVATNILGKAENQVRLEVKDPTRIYRMPEDQVARRGTTVQLECRVKHDPSLKLTVSWLKDDEPLYIGNRMKKEDDSLTIFGVAERDQGSYTCVASTELDQDLAKAYLTVLGRPDRPRDLELTDLAERSVRLTWIPGDANNSPITDYVVQFEEDQFQPGVWHDHSKYPGSVNSAVLRLSPYVNYQFRVIAINEVGSSHPSLPSERYRTSGAPPESNPGDVKGEGTRKNNMEITWTPMNATSAFGPNLRYIVKWRRRETREAWNNVTVWGSRYVVGQTPVYVPYEIRVQAENDFGKGPEPESVIGYSGEDYPRAAPTEVKVRVMNSTAISLQWNRVYSDTVQGQLREYRAYYWRESSLLKNLWVSQKRQQASFPGDRLRGVVSRLFPYSNYKLEMVVVNGRGDGPRSETKEFTTPEGVPSAPRRFRVRQPNLETINLEWDHPEHPNGIMIGYTLKYVAFNGTKVGKQIVENFSPNQTKFTVQRTDPVSRYRFTLSARTQVGSGEAVTEESPAPPNEGRCMAAAPGVKGPS”, the “soluble on expression in E. coli” value is listed as “soluble”. Consider “HPIFQRDGDDLHCEVPVRISQAALGDIVRVATLDGEAEIRIPAETQSGKLFRLRGKGVRSVRSRTEGDLYCRIVVETPVNLTAEQRKLLEQFEMTFAGEDARK”, for which the “soluble on expression in E. coli” value is given as “not soluble”.

As for “HPWRKGPFTVHDIHIDTEWRSDWKWDRLLPHITPLKNRSVLDVGCGNGYHMWRMLGEDARLCVGIDPSHLFLIQFEAIRKLMGNDQRAHLLPLGIEQLPELNAFDTVFSMGVLYHRRSPLDHLIQLKNQLVAGGELVLETLVIDGDENAVLMPVDRYAQMRNVYFFPSARALKVWLESVGFVDVKIVDECVTTTGEQRSTEWMKHNSLPEYLDPNDSTKTIEGHPAPKRAILIAKKPD”, the “soluble on expression in E. coli” value is recorded as “not soluble”. The same measure for “HWPPLGIVRDLWTESGIGPERVAVMERVAGPKCCLLGRQNDRPSGAAFVGLAGPFAMLHALEVTPALRRLGSAQAMIRRGACWAEAAGAHWFSLVVTTANAPARALYEALGMEEVGHYHYRLK”: “not soluble”; for “IAALSRDITPQQDGSVIVDASITIRHLNRMMGWSLPLIGPRTLSGLIIEHLGYIPPPDSCLVIDHYHIEILRVSDNMIRGVKMIKTN”: “not soluble”. To “IDFRGIEKQGGRVLIDVSDTGIPIDVTQVGKEIVVNFLNTKIPLNLMKRYDVSDFHSPVQIITMQQEGKKVRMTILSKGDYGHFVYQVNKQFMVDVFPLTAEEIR” belongs “not soluble”; to “IGNGGAERGTRNTLDIRTVAHREADGSYRIKGEKFYSTGALFAHWVSIKALDDNGKTVMAFIERGTQGLRIVDDWSGFGQRTTASGTVLLDDVSVPAKQVVP”, “not soluble”. For “ILAVLFANSVGNVLIERFNGVPAEERLHWRSFLVKLGADNLKGVKNEELLVACHKSVYIVYTMLGDVSIFLVGKDEYDELALAETIYIITAAVKDVCGKPPTERVFLDKYGRICLCLDEIVW”, the “soluble on expression in E. coli” value is reported as “not soluble”. Regarding “ILGYSYGYNGMEANVSKSDYEKHMSDLDTKKIKQDIKKAEKEADITIVMPQMGIEYQKKPTTEQVMLYHSMIKWGADIIFGGHPHVVEPSEVIKKDGQKKFIIYSMGNFISNQRLETVDDIWTE”, the “soluble on expression in E. coli” value was “not soluble”.
